Experimental data taken from US20190307847A1 (NGM BIOPHARMACEUTICALS, published 2019).

Biological target: mouse FGFR4/β-klotho complex co-expressed in rat L6 myoblast cells (mouse, UniProt Q03142 17-799; Q99N32 1-1043)
Test: cell-based or functional assay

Sequence of mouse FGFR4/β-klotho complex co-expressed in rat L6 myoblast cells (Q03142 17-799, chain 1 of 2): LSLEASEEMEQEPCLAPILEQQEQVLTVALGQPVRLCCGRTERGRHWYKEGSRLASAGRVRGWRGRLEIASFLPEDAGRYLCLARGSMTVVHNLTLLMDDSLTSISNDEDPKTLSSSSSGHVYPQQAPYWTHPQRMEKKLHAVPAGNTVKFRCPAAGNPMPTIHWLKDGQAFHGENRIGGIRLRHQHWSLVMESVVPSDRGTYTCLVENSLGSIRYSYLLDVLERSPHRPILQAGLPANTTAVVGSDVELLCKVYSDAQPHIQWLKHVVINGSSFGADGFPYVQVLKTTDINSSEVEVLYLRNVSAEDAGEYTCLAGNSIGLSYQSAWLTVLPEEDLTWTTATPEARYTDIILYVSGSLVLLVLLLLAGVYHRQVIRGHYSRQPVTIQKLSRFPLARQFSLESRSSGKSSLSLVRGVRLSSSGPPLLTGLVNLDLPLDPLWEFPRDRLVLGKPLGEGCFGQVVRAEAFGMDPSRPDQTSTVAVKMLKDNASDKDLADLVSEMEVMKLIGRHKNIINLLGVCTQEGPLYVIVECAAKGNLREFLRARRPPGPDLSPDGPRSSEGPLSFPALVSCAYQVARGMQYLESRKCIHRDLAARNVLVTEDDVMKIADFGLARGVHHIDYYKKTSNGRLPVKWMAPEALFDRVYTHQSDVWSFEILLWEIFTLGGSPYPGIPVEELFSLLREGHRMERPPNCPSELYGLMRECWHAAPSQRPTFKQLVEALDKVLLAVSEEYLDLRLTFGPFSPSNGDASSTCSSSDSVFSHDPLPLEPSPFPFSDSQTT
Sequence of mouse FGFR4/β-klotho complex co-expressed in rat L6 myoblast cells (Q99N32 whole entry, chain 2 of 2): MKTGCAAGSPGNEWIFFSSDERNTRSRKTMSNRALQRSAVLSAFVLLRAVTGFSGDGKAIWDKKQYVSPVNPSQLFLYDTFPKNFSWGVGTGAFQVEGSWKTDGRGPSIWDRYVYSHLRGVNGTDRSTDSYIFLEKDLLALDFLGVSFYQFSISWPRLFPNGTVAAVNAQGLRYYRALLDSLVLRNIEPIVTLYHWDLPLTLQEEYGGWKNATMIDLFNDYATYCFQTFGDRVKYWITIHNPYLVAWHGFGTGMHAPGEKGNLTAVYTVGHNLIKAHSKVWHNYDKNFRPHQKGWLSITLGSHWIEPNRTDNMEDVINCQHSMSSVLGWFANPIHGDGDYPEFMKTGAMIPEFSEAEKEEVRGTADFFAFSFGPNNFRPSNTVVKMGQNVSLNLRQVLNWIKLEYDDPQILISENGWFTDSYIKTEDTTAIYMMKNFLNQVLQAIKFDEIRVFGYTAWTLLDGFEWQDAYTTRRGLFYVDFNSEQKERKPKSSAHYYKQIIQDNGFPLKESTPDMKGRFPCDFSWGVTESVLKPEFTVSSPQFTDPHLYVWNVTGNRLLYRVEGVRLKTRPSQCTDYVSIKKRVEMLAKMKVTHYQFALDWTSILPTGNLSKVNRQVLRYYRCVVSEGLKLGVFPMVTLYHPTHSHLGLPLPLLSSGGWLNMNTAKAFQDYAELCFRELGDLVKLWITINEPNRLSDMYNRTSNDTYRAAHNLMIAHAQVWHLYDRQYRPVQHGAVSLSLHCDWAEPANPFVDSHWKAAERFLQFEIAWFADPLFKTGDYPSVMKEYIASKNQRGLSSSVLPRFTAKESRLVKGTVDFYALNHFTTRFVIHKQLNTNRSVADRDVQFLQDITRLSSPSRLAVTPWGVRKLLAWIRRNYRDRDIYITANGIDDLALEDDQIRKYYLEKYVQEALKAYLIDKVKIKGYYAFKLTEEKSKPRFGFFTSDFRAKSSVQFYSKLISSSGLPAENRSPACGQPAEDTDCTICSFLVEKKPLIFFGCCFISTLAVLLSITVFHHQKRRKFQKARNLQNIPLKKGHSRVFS

B1: FGF19 variant M70 (ligand)
chain: MRDSSPLVHYGWGDPIRLRHLYTSGPHGLSSCFLRIRADGVVDCARGQSAHSLLEIKAVALRTVAIKGVHSVRYLCMGADGKMQGLLQYSEEDCAFEEEIRPDGYNVYRSEKHRLPVSLSSAKQRQLYKNRGFLPLSHFLPMLPMVPEEPEDLRGHLESDMFSSPLETDSMDPFGLVTGLEAVRSPSFEK
EC50 (pM), ELK luciferase assay in L6 cells: 38.3 pM
Emax (fold potentiation), ELK luciferase assay in L6 cells: 1.85 fold potentiation
